Source: article PMC3225178

Biological target: SmLip residues 27-176 (mature Lip minus signal peptide) fused to T18 (pSC072) or to T25 (pSC080) (Serratia marcescens)
Test: two-hybrid

Substance: SmLip residues 27-176 (mature Lip minus signal peptide) fused to T18 (pSC072) or to T25 (pSC080) (domain or fragment)
- β-galactosidase activity (two-hybrid output): > 5000 Miller units
